Measured values taken from article PMC3169552.

Legend:
[1] = target: His6-tagged vaccinia virus D13 (native D13) (vaccinia virus, Western Reserve strain); test: crystal structure
[2] = target: His6-tagged vaccinia virus D13 (native D13) (vaccinia virus, Western Reserve strain); test: negative-stain electron microscopy

Substance: His6-tagged vaccinia virus D13 (native D13) (natural protein)
- stoichiometry N [1]: 3
- stoichiometry N [2]: 3
